The results in this text go back to patent publication US20240132581A1 (BEIJING WISDOMAB BIOTECHNOLOGY, published 2024).

T1: extracellular domain of human TSLP receptor (hTSLPR-ECD) (human (Homo sapiens), UniProt Q9HC73 23-231)
T1 sequence: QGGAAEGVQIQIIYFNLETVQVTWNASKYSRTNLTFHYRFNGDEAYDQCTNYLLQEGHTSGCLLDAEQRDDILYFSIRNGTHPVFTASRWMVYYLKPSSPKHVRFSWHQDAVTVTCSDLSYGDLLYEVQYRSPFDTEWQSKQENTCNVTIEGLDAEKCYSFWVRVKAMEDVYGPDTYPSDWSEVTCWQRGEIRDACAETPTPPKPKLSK

B1: hTSLP1-m-mFc (Fc fusion)
chain: YDFTNCDFEKIKAAYLSTISKDLITYMSGTKSTEFNNTVSCSNRPHCLTEIQSLTFNPTAGCASLAKEMFAMKTKAALAIWCPGYSETQINATQAMKKVTTNKCLEQVSQLQGLWRRFNRPLLKQQPRGPTIKPCPPCKCPAPNLLGGPSVFIFPPKIKDVLMISLSPIVTCVVVDVSEDDPDVQISWFVNNVEVHTAQTQTHREDYNSTLRVVSALPIQHQDWMSGKEFKCKVNNKDLPAPIERTISKPKGSVRAPQVYVLPPPEEEMTKKQVTLTCMVTDFMPEDIYVEWTNNGKTELNYKNTEPVLDSDGSYFMYSKLRVEKKNWVERNSYSCSVVHEGLHNHHTTKSFSRTPGK
notes: also called recombinant protein hTSLP1-m-mFc
B2: H1A10×H3B10-M1+L3E8-M7 BsAb (anti-human TSLP bispecific antibody) (bispecific antibody, human IgG1, kappa)
heavy 1: QVQLVQSGAEVKKPGASVKVSCKASGYAFSNYWMNWVRQAPGQGLEWMGQIFPGDSDTDYDQKFQGRVTMTRDTSTSTVYMELSSLRSEDTAVYYCARAGYYRGYYAMDYWGQGTTVTVSSASTKGPSVFPLAPSSKSTSGGTAALGCLVKDYFPEPVTVSWNSGALTSGVHTFPAVLQSSGLYSLSSVVTVPSSSLGTQTYICNVNHKPSNTKVDKRVEPKSCDKTHTCPPCPAPEFEGGPSVFLFPPKPKDTLMISRTPEVTCVVVDVSHEDPEVKFNWYVDGVEVHNAKTKPREEQYNSTYRVVSVLTVLHQDWLNGKEYKCKVSNKALPASIEKTISKAKGQPREPQVYTLPPCREEMTKNQVSLWCLVKGFYPSDIAVEWESNGQPENNYKTTPPVLDSDGSFFLYSKLTVDKSRWQQGNVFSCSVMHEALHNHYTQKSLSLSPGK
heavy 2: QVTLKESGPVLVKPTETLTLTCTVSGFSLSSYDISWIRQPPGKALEWLGVIWSEGGTSYSTSLKSRLTISKDTSKSQVVLTMTNMDPVDTATYYCARDSDDGYLNWGQGTLVTVSSASTKGPSVFPLAPSSKSTSEGTAALGCLVKDYFPEPVTVSWNSGALTSGVHTFPAVLQSSGLYSLSSVVTVPSSSLGTQTYICNVDHKPSNTKVDKTVEPKSCDKTHTCPPCPAPEFEGGPSVFLFPPKPKDTLMISRTPEVTCVVVDVSQEDPEVQFNWYVDGVEVHNAKTKPREEQYNSTYRVVSVLTVLHQDWLNGKEYKCKVSNKALPASIEKTISKAKGQPREPQVCTLPPSQEEMTKNQVSLSCAVKGFYPSDIAVEWESNGQPENNYKTTPPVLDSDGSFFLVSKLTVDKSRWQEGNVFSCSVMHEALHNHYTQKSLSLSPGK
light: EIVMTQSPATLSVSPGERATLSCSVSSSISSSNLHWYQQKPGQAPRPWIYGTSNLASGIPARFSGSGSGTEFTLTISSVQAEDFAVYYCQQWSSYPLTFGQGTKLEIKRTVAAPSVFIFPPSDEQLKSGTASVVCLLNNFYPREAKVQWKVDNALQSGNSQESVTEQDSKDSTYSLSSTLTLSKADYEKHKVYACEVTHQGLSSPVTKSFNRGEC
notes: also called bispecific antibody H1A10×H3B10-M1+L3E8-M7; bispecific antibody H1A10×H3B10-M1
B3: H3B10-M1+L3E8-M7 (humanized monoclonal antibody) (antibody, V domains shown)
VH: QVTLKESGPVLVKPTETLTLTCTVSGFSLSSYDISWIRQPPGKALEWLGVIWSEGGTSYSTSLKSRLTISKDTSKSQVVLTMTNMDPVDTATYYCARDSDDGYLNWGQGTLVTVSS
VL: EIVMTQSPATLSVSPGERATLSCSVSSSISSSNLHWYQQKPGQAPRPWIYGTSNLASGIPARFSGSGSGTEFTLTISSVQAEDFAVYYCQQWSSYPLTFGQGTKLEIK
notes: Expressed as a whole antibody
B4: H1A10+L3E8-M7 (humanized monoclonal antibody) (antibody, V domains shown)
VH: QVQLVQSGAEVKKPGASVKVSCKASGYAFSNYWMNWVRQAPGQGLEWMGQIFPGDSDTDYDQKFQGRVTMTRDTSTSTVYMELSSLRSEDTAVYYCARAGYYRGYYAMDYWGQGTTVTVSS
VL: B3 VL
notes: Expressed as a whole antibody

Experiment [1] concerns the target T1, extracellular domain of human TSLP …. Briefly: SPR (Biacore T200): hTSLP1-m-mFc captured (about 80 RU) by anti-mFc antibody on CM5, buffer then hTSLPR-ECD at 100 µg/mL. Background: SPR reads the build-up and loss of mass on a sensor chip optically.
Experimental: (§1) The recombinant protein hTSLP1-m-mFc was diluted to 2 μg/mL with 1×HBS-EP buffer, and was injected at 10 μL/min for 12 s. Approximately 80 RU of hTSLP1-m-mFc was captured by the anti-mFc antibody. […] Two molecules were sequentially injected using a double injection mode of Biacore T200. […] Each of the molecules was injected for 90 s. The surface of the chip was regenerated at the end of the injection by injecting 10 mM glycine-HCl (pH 1.7) at 10 μL/min for 30 s. The Y-axis reporting points for the double baselines were zeroed using Biacore T200 evaluation software version 3.0, and then the RU values were plotted against times using GraphPad software.
The target in experiment [2] is cynomolgus monkey TSLP (mfTSLP) (cynomolgus monkey (Macaca fascicularis)). Briefly: SPR Biacore X100 as in Example 3.1, antibody captured, mfTSLP as analyte.
The target in experiment [3] is B1. The experiment is described as follows: SPR (Biacore T200): hTSLP1-m-mFc captured (about 80 RU) by anti-mFc antibody on CM5, antibody at 50 µg/mL [continued) E].
Experimental: as §1
For experiment [4], the target named is T2, hTSLP:hTSLPR complex (hTSLP1-m-mFc with hTSLPR-ECD bound, formed on the chip) (human (Homo sapiens), UniProt Q9HC73 23-231).
T2 construct: also called TSLP:TSLPR complex
Briefly: SPR (Biacore T200): chip surface with hTSLP1-m-mFc captured by anti-mFc antibody and loaded with hTSLPR-ECD, antibody at 50 µg/mL injected before hIL-7Rα-ECD [continued) D].
Experimental: (§2) Two molecules were sequentially injected using a double injection mode of Biacore T200. […] Each of the molecules was injected for 60 s. The surface of the chip was regenerated at the end of the injection by injecting 10 mM glycine-HCl (pH 1.7) at 10 μL/min for 30 s. The Y-axis reporting points for the double baselines were zeroed using Biacore T200 evaluation software version 3.0, and then the RU values were plotted against times using GraphPad software.

The target in experiment [5] is B1. Briefly: SPR (Biacore T200): hTSLP1-m-mFc captured (about 80 RU) by anti-mFc antibody on CM5, antibody at 50 µg/mL [continued) C].
Experimental: as §1
Experiment [6] concerns the target T2, hTSLP:hTSLPR complex (hTSLP1-m-mFc with …). The experiment is described as follows: SPR (Biacore T200): chip surface with hTSLP1-m-mFc captured by anti-mFc antibody and loaded with hTSLPR-ECD, antibody at 50 µg/mL injected before hIL-7Rα-ECD [continued) B].
Experimental: as §2
Experiment [7] deals with B1. Briefly: SPR (Biacore T200): hTSLP1-m-mFc captured (about 80 RU) by anti-mFc antibody on CM5, antibody at 50 µg/mL [continued) D].
Experimental: as §1
In experiment [8] the target is T2, hTSLP:hTSLPR complex (hTSLP1-m-mFc with …). Briefly: SPR (Biacore T200): chip surface with hTSLP1-m-mFc captured by anti-mFc antibody and loaded with hTSLPR-ECD, antibody at 50 µg/mL injected before hIL-7Rα-ECD [continued) C].
Experimental: as §2

Consider B1, for which, in experiment [1], the binding result was “binds”.

The term Kd denotes the equilibrium constant for the complex coming apart. B2 showed a Kd in experiment [2] of 2.75 nM. For the same molecule, the binding result (in the experiment with hTSLP1-m-mFc [3]; in experiment [4]) was “binds” throughout.

B3: the binding result (with hTSLP1-m-mFc [5]; in experiment [6]) was “binds” each time.

For the molecule B4, the binding result (in the experiment with hTSLP1-m-mFc [7]; in experiment [8]) was “binds” throughout.
